Columns and labels:
border cells = assay: Border cell migration in stage 10 egg chambers expressing Catsup RNAi (rescue by co-expressed transgenes); format: in vivo, Drosophila; details: co-expressed with Catsup RNAi in border cells
Text: Border cell clusters are composed of 4-6 migratory cells that surround and carry two non-migratory polar cells. Expression of a Catsup RNAi line in outer, migratory border cells using fruitlessGal4^51 inhibited migration (FIG. 2A). The defect was rescued by co-expression of UAS-CatsupV5 (FIG. 2B). Reduction of Catsup::GFP confirmed the effectiveness of the RNAi (FIGS. 2C, C′ and 2D, D′). Border cell migration was also impaired when Catsup RNAi was driven by c306Gal4 (FIG. 2E), which is expressed in both polar and migratory cells.
ZIP7 resides in the ER membrane and transports Zn^2+ from the ER to the cytosol^64. To test whether the Zn^2+ transporter activity of Catsup was important for border cell migration, we introduced point mutations, H315A and H344A, which replace histidine residues that are required for Zn^2+ transport and are conserved between Catsup, ZIP7 and a more distant family member from Arabidopsis IRT1. […] We generated transgenic flies expressing the mutants under Gal4/UAS control and included a V5 tag so that we could monitor protein abundance and localization. We then co-expressed each of these RNAi-resistant transgenes with CatsupRNAi and evaluated protein expression and border cell migration (FIGS. 5B-5E). […] All the proteins were stably expressed and correctly localized to the ER (FIGS. 5B-5E), therefore the lack of rescue was likely a consequence of impaired transporter activity rather than impaired expression, localization, or another function. […] From these experiments, we conclude that Zn^2+ transport is an essential function of Catsup in promoting ERAD.
Catsup mutant fly was generated by ethyl methanesulfonate (EMS) mutagen^37. The mutation results in glycine(G) to aspartic acid(D) replacement at amino acid 178. The FLP/FRT system was used to generate the Catsup^G178D homozygous mutant clones by combining FRT40A-Catsup^G178D with hsFLP12,yw;ubi:GFPnls, FRT40A or hsFLP12,yw;ubi:RFPnls, FRT40A/(CyO). Catsup::GFP expression pattern visualized by the line from VDRC 318542 in the fTRG stocks library. The UAS-CatsupRNAi transgenic line is from VDRC 100095 P{KK103630}VIE-260B. Wild type rescue w[*]; sna[Sco]/CyO; P{w[+mCJ=UAS-Catsup. V5}6 Bloomington 63229. Additional transgenic Drosophila stocks used: UAS-wRNAi/Cyo is a lab stock, UAS-PleRNAi Bloomington 25796 y[1] v[1]; P{y[+t7.7] v[+t1.8]=TRiP.JF01813}attP2, UAS-Ple is Bloomington 37539 w[*]; P{w[+mC]=UAS-ple.T}331f2, O-fucosyltransferasel Bloomington 9376 P{UAS-O-fut.}]1.1, UAS-Notch.Intracellular.Domain on third chromosome was a gift from Artavanis-Tsakonas lab^71. The ER stress marker UAS-Xbp1-EGFP.HG Bloomington 60731 w[*]; P{w[+mC]=UAS-Xbp1.EGFP.HG}3, UAS-HSC70-3 Bloomington 5843 w[126]; P{w[+mC]=UAS-Hsc70-3. WT}B. Catsup point mutations were cloned into vector pUASt-attb with forward primer ctctgaatagggaattggg[…] (SEQ ID NO:1) and reverse primer ccgcagatctgttaacgtca[…] (SEQ ID NO:2). The vector was injected to attp2 flies y1 w67c23; P{CaryP}attP2 by BestGene Inc.
When generating UAS-Catsup-point-mutations, we designed the construct so it cannot be targeted by the CatsupRNAi sequences by substituting redundant codons for the same amino acids within the region targeted by the RNAi. The RNAi resistant sequence is below with nucleic acid substitutions in lower case:
Point mutations were designed by changing codons at the following site CatsupH183A (CAC to GCC), CatsupH187A (CAT to GCT), CatsupH315A (CAT to GCT), CatsupH344A ([…]). […]

Notch and EGFR = assay: Intracellular accumulation of Notch and EGFR in mosaic clones expressing CatsupRNAi; format: in vivo, Drosophila; details: mosaic expression with CatsupRNAi
Text: In wing imaginal disc epithelia, multiple transmembrane receptor proteins, including Notch and EGFR, accumulate abnormally in Catsup mutant cells^40. We similarly found abnormal intracellular accumulation of Notch in follicle cells generally (FIG. 3D, D′) and border cells specifically (FIG. 3E, E′) upon Catsup knockdown. […] As in imaginal discs, EGFR also accumulated abnormally in Catsup RNAi-expressing border cells (FIG. 3G, G′) and epithelial follicle cells (FIG. 3H, H′), whereas E-Cadherin was unaffected (FIG. 31, I′). From these observations, we conclude that Catsup prevents intracellular accumulation of particular transmembrane proteins and promotes Notch signaling, migration and survival in multiple cell types and organisms.
ZIP7 resides in the ER membrane and transports Zn^2+ from the ER to the cytosol^64. To test whether the Zn^2+ transporter activity of Catsup was important for border cell migration, we introduced point mutations, H315A and H344A, which replace histidine residues that are required for Zn^2+ transport and are conserved between Catsup, ZIP7 and a more distant family member from Arabidopsis IRT1. […] We then co-expressed each of these RNAi-resistant transgenes with CatsupRNAi and evaluated protein expression and border cell migration (FIGS. 5B-5E). […]

Row | Molecule | rescue of border cell migration defect (border cells) | rescue of accumulation of Notch and EGFR (Notch and EGFR)
1 | Catsup^H187A: V5-tagged RNAi-resistant Catsup point mutant that does not disrupt Zn2+ transport (control) (protein, UniProt Q9V3A4 1-449, looked up, variant H187A, V5 tag) Protein catecholamines up: MAKQVADYQCSKLQLYQKLALVVILGAVLFSLPALCAGQGNPSFKYSREANENFDPQKAPRAEHHHHHDHDHDHGHHHHGHDHDHDHDHGHDHGHHHHGHDHDHDHDHGHHHHGHDERHTKAKPDLDMSTIWLHSIGSTLLISAAPFVLLYIIPLDNSEAMKPRLKVLLAFASGGLLGDAFLHLIPAATHPHSHGEHGHDHGHDHHHHHDGEEHEHGHSHDMSIGLWVLGGIIAFLSVEKLVRILKGGHGGHGHSHGAPKPKPVPAKKKSSDKEDSGDGDKPAKPAKIKSKKPEAEPEGEVEISGYLNLAADFAHNFTDGLAIGASYLAGNSIGIVTTITILLHEVPHEIGDFAILIKSGCSRRKAMLLQLVTALGALAGTALALLGAGGGDGSAPWVLPFTAGGFIYIATVSVLPELLEESTKLKQSLKEIFALLTGVALMIVIAKFE | rescue border cell migration to nearly wild type levels | did
2 | Catsup^H183A: V5-tagged RNAi-resistant Catsup point mutant that does not disrupt Zn2+ transport (control) (protein, UniProt Q9V3A4 1-449, looked up, variant H183A, V5 tag) Protein catecholamines up: MAKQVADYQCSKLQLYQKLALVVILGAVLFSLPALCAGQGNPSFKYSREANENFDPQKAPRAEHHHHHDHDHDHGHHHHGHDHDHDHDHGHDHGHHHHGHDHDHDHDHGHHHHGHDERHTKAKPDLDMSTIWLHSIGSTLLISAAPFVLLYIIPLDNSEAMKPRLKVLLAFASGGLLGDAFLALIPHATHPHSHGEHGHDHGHDHHHHHDGEEHEHGHSHDMSIGLWVLGGIIAFLSVEKLVRILKGGHGGHGHSHGAPKPKPVPAKKKSSDKEDSGDGDKPAKPAKIKSKKPEAEPEGEVEISGYLNLAADFAHNFTDGLAIGASYLAGNSIGIVTTITILLHEVPHEIGDFAILIKSGCSRRKAMLLQLVTALGALAGTALALLGAGGGDGSAPWVLPFTAGGFIYIATVSVLPELLEESTKLKQSLKEIFALLTGVALMIVIAKFE | rescue border cell migration to nearly wild type levels | did
3 | Catsup^H315A: V5-tagged RNAi-resistant Catsup point mutant replacing a histidine required for Zn2+ transport (protein, UniProt Q9V3A4 1-449, looked up, variant H315A) Protein catecholamines up: MAKQVADYQCSKLQLYQKLALVVILGAVLFSLPALCAGQGNPSFKYSREANENFDPQKAPRAEHHHHHDHDHDHGHHHHGHDHDHDHDHGHDHGHHHHGHDHDHDHDHGHHHHGHDERHTKAKPDLDMSTIWLHSIGSTLLISAAPFVLLYIIPLDNSEAMKPRLKVLLAFASGGLLGDAFLHLIPHATHPHSHGEHGHDHGHDHHHHHDGEEHEHGHSHDMSIGLWVLGGIIAFLSVEKLVRILKGGHGGHGHSHGAPKPKPVPAKKKSSDKEDSGDGDKPAKPAKIKSKKPEAEPEGEVEISGYLNLAADFAANFTDGLAIGASYLAGNSIGIVTTITILLHEVPHEIGDFAILIKSGCSRRKAMLLQLVTALGALAGTALALLGAGGGDGSAPWVLPFTAGGFIYIATVSVLPELLEESTKLKQSLKEIFALLTGVALMIVIAKFE | neither Castup^H344A nor Catsup^H315A provided significant rescue | 
4 | O-fucosyltransferase-1: Notch specific chaperone, overexpressed from a UAS transgene (protein, UniProt Q9V6X7 24-402, looked up) GDP-fucose protein …: QLGGDPNGYLTYCPCMGRFGNQADHFLGSLAFAKALNRTLILPPWVEYRRGELRSRQVPFNTYFEVEPLKEYHRVITMADFMWHLADDIWPESERVSFCYKERYSLQQEKNDPDKPNCHAKDGNPFGPFWDTFHIDFVRSEFYAPLHFDVHHSNEAAKWQTKYPAESYPVLAFTGAPASFPVQLENCKLQRYLQWSQRYREASKDFIREQLPRGAFLGIHLRNGIDWVRACEHVKDSQHLFASPQCLGYKNERGALYPELCMPSKEAIIRQLKRTIKNVRQTQPDNEIKSVFVASDSNHMIGELNTALSRMGISVHKLPEDDPYLDLAILGQSNHFIGNCISSYSAFEKRERDVHGFPSYFWGFPKEKDRKHTNVHEEL | neither NICD expression nor overexpression of the Notch specific chaperone O-fucosyltransferase-1^58 was sufficient to rescue Catsup RNAi | 

Reference: patent US20250000945A1, “Suppression of Neurodegeneration with Zinc Transporter Protein 7” (The Regents of the University of California, priority 2021, published 2025)
